Test results from patent US20200023081A1, “SELF-ASSEMBLING CYCLOPEPTIDE-DYE COMPOUNDS, FORMULATIONS THEREOF, AND USES THEREOF” (The Board of Trustees of the Leland Stanford Junior …, priority 2018, published 2020).
“And” between values parts separate entries of the source, which are not always exact repeats. Equal values may be shown once.

Legend:
[1] = in DCE; cited from earlier work
bone = format: in vivo, BALB/c mice
Protocol: FIG. 3A illustrates a supine position, top CH-RGD, bottom CH-RAD 3 h post-injection. 22 nmol CH-RGD or CH-RAD was intravenously injected into 20-25 g hairless BALB/c mice (n=6, 3 males, 3 female). NIR-II imaging (200 ms, 1150LP, 808 nm 140 mW/cm^2 laser excitation) was taken at different time points post-injection (post-injection).
(§1) Teen-week old BALB/c mice (n=3 male and 3 female per group) were obtained from Charles River for bone imaging studies, teen-week old C57BL/6 female mice (n=4 per group) were obtained from Charles River for brain vessel studies, teen-week old NU/NU female mice (n=4 per group) were obtained from Charles River for leg vessel studies, teen-week old BALB/c male mice (n=4 per group) were obtained from Charles River and housed for another 42 weeks for lymph node and lymphatic vessel studies, eight-week old female NU/NU mice (n=3 per group) were obtained from Charles River for tumor targeting studies. Before vessel or tumor imaging, all mice were anaesthetized in a rodent anesthesia machine with 2 l min^−1 O2 gas mixed with 3% Isoflurane. Tail vein injection of contrast agents were carried with a catheter and synchronized with a camera that started continuous image acquisition simultaneously. The IV injected dose was a 200 μL bolus in a 1×PBS solution at specified concentrations. The ID injected dose was a 50 μL bolus in a 1×PBS solution at specified concentrations. During the time course of imaging the mouse was kept anaesthetized by a nose cone delivering 2 l min^−1 02 gas mixed with 3% isoflurane. The sample sizes of mice were selected based on previously reported studies. Mice were randomly selected from cages for all experiments. No blinding was performed.
(§2) Images were processed with ImageJ.

U87MG tumor [2] = details: mouse, in vivo, iv
Protocol: (§3) Then NIR-II (200 ms, 1000LP) or NIR-I (200 ms, 814-851BP) images were taken at different time points.
(§4) Nude mice were purchased from Charles River. U87MG cells were cultured in Dulbecco's modified Eagle medium containing high glucose (Gibco), which were supplemented with 10% fetal bovine serum and 1% penicillin-streptomycin. The cell was expanded in tissue culture dish and kept in a humidified atmosphere of 5% CO2 at 37° C. The medium was changed every other day. A confluent monolayer was detached with 0.5% trypsin, and dissociated into a single-cell suspension for inoculation. When the mice reached eight weeks in age, mice were inoculated with 1×10^6 U87MG cells on the right front shoulder. The tumor was allowed to grow for approximately 30 days before imaging, at which point they were approximately 30-120 mm^3 in volume.
(§5) Mice were placed on a stage with a venous catheter for IV injection of contrast and imaging agents. 0.5 mL syringe was used directly for ID injection. All NIR-II images were collected on a 640×512 pixel two-dimensional InGaAs array (Princeton Instruments, NIRvana TE 640). The excitation laser was an 808 nm laser diode at a power density of approximately 140 mW cm^−2. Emission was typically collected with 1000, 1050, 1100, 1150, 1200, 1250, 1300, 1350, 1400 nm LP filter (Thorlabs). 50 mm and 75 mm prime lens (Edmund optics) was used to obtain magnifications ranging of 1× (whole body) to 2.5× (high magnification) magnification by changing the relative position of camera, lens and animals. A binning of 1 and a variable exposure time were used for the InGaAs camera (640×512 pixel) to capture images in the NIR-II window. Images were processed with ImageJ.
(§6) All NIR-I images were collected A 1,344×1,024-pixel Hamamatsu silicon CCD detector (Hamamatsu C8484-03G02; pixel number: 1,344×1,024; readout noise: approximately 7 electron r.m.s.; dark current: 0.01 electrons per second per pixel) with an 814-851 nm bond pass filter (Edmund, #84-107). […]

U87MG tumor [3] = assay: Subcutaneous U87MG tumor imaging, IV vs ID
Protocol: as §3, §4, §5, §6

[4] = Photostability under continuous 808 nm laser excitation; format: physicochemical; details: 45 min continuous laser excitation (0.33 W/cm^2, 808 nm) in water, pH 7.4 PBS, FBS
Text: The NIR fluorescence spectrum was taken using a home-built NIR spectroscopy setup. The excitation source was a 0.25 W 808 nm laser. The excitation laser was filtered with a combination of an 850/1,000/1,100/1,200/1,300 nm short-pass filters (Thorlabs). The excitation light was allowed to pass through the solution sample in a 1-cm-path-length cuvette (Starna Cells) and the resulting emission filtered through a 900 nm long-pass filter (Thorlabs) to reject the incident excitation laser light. The emitted light was directed into a spectrometer (Princeton Instruments, IsoPlane 160) equipped with a two-dimensional InGaAs array (Princeton Instruments, NIRvana TE 640). Spectra were corrected post-collection to account for the sensitivity of the detector and extinction feature of the filter. Photostability was determined by spiking CH-RGD NPs into FBS, 1× pH 7.4 PBS and DI water, and exposing it in a 1-cm-path-length cuvette (Starna Cells) to continuous 808 nm excitation at a power density of 0.33 W cm^−2 and taking images every 5 mins for approximately 45 min. Stability was determined by measuring the ROI and comparing the fluorescence intensity against the starting fluorescence signal.

[5] = In vitro serum stability in FBS; format: in vitro ADME; details: 37° C.
Protocol: Fetal Bovine Serum (FBS, Gibco® Catalog #26140) was used to dilute the CH-RGD PBS stock solution into 2 mL, 10 μM mixture solution. And the mixture was incubated at 37° C. in a cell culture incubator for one month. At each designated time point, 200 μL serum mixture were collected for DLS and TEM analysis.

NIH/3T3 cells = assay: MTT cytotoxicity of CH-RGD NPs; format: cell-based
Protocol: The CH-RGD NPs toxicity was determined in vitro with a MTT assay (3-(4,5-dimethylthiazol-2-yl)-2,5-diphenyl tetrazolium bromide, Sigma-Aldrich, St. Louis, Mo.) on NIH/3T3 cells. Approximately 5,000 cells were incubated per well with 200 μL of DMEM growth medium and serially diluted CH-RGD NPs solution (n=6 for each concentration). The cells were kept at 37° C. in a humidified atmosphere containing 5% CO2 for 48 h in the presence of CH-RGD NPs at different concentrations. Immediately before addition of 20 μl of MTT (5 mg/mL), a colorimetric indicator of cell viability, the CH-RGD NPs-spiked medium was removed from each well plate and replaced with 180 μL fresh medium. After 4 h, the medium was carefully removed, 100 μL DMSO was added. Shaking for 10 mins, the color change was quantified using a microplate reader (TECAN Infinite M100) and taking absorbance readings at 570 nm with a reference wavelength of 650 nm. Cell viability was plotted as a fraction of the absorbance of control wells incubated without CH-RGD NPs.

[6] = Blood half-life measurement by NIR-II blood signal; format: in vivo; details: mouse, BALB/c mice
Protocol: Arrows indicate the blood vessel signal.
Half-life: approximately 776 min.

[7] = Liver signal decay after IV injection; format: in vivo, BALB/c mice; details: BALB/c, mouse, IV 10 nmol, read-out: elimination half-life from liver signal decay curve (converted)
Text: IV inject 10 nmol CH-RGD NPs into BALB/c mice (n=5). NIR-II fluorescent imaging (10001p, 200 ms) of mice in a supine position were taken 1, 2, 3, 4, 8, 12, 32, 60 days (d) post injection. Of 5 mice, 4 gave the strongest signal 2 days post-injection. One mouse gave it 1 day post-injection. Each liver signal was normalized with the 2 days post-injection intensity. GraphPad Prism 6 one phase decay analysis was used to get the half-life approximately 7.65 d.

U87MG tumor [8] = assay: Double subcutaneous U87MG tumor imaging; format: in vivo, nude mice; details: IV 10 nmol
Protocol: FIG. 5A is a color photograph of a nude mouse with double xenograft brain tumor (U87MG) located on the left (approximately 1 mm) and right ([…]) shoulder. Intravenous injection of CH-RGD 10 nmol into the double tumor nude mice (n=3). NIR-II imaging (50 ms, 1000LP) at 3 days post-injection was taken at prone (FIG. 5B), right (FIG. 5C) and left (FIG. 5D) lateral decubitus.
The first right shoulder big tumor implantation is the same as above description. The difference is allowed the tumor grow for 2 to 3 weeks. When the right tumor diameter (ø) was between about 1 to 2 mm, 1×10^6 U87MG cells were injected into the mice left shoulder. After about 1 to 2 weeks, when the left shoulder tumor had grown to a diameter of about 1 mm and the right shoulder tumor was approximately 6 mm in diameter, the mouse was used for imaging.
as §2

[9] = test system: orthotopic bone tumors (143B); assay: Orthotopic 143B osteosarcoma imaging; format: in vivo, nude mice; details: ID injection
Protocol: Eight-week old female nude mice (Charles River) were anaesthetized using 2.0% isoflurane and positioned on a heating pad (42° C.). The shoulder was cleaned with 70% ethanol and betadine. 1×10^6 143B cells were first injected subcutaneously into the shoulder mice and the tumor allowed to grow to a diameter 5-8 mm solid tumor. The tumors were surgical resected and cut into 1×1×1 mm^3 pieces.
The right tibia of 8-week old NU/NU mice was opened in the central part by drilling with a dental drill for a 0.5 mm diameter hole. One tumor fragment was insert into the hole and contact with the bone marrow. Then the surgical wound was sutured. Mice were observed daily for tumor growth. Palpation, micro CT and 3T MRI were used to monitor the tumor growth. The mouse was used for imaging experiment, when the tumor size had reached to 3-5 mm diameter.

[10] = test system: metastatic tail bone tumor (143B); assay: Metastatic 143B bone tumor imaging; format: in vivo, mice; details: ID injection into left hind limb
Protocol: When the orthotopic 143B tumor grows to 3-4 mm diameter, surgery was performed to resect the tumor. Tumor was cut into pieces, and the visible tumor fragments were taken out. Then the surgical wound was sutured. Although the metastasis was not frequently occurring in mice tail, mice tail metastasis is the easiest diagnostic metastasis. By visual inspection, 143B tail metastasis mouse was chosen out. The mouse was used for imaging experiment when the tumor size reach to approximately 1 mm diameter.

blood vessels = assay: Blood vessel imaging (brain, hind limb); format: in vivo, mice; details: NIR-I imaging
Protocol: FIGS. 4A-4W show blood vessel, lymphatic vessel, and lymph node imaging with CH-RGD (NIR-II), ICG and IR800-RGD (NIR-I). 15 nmol CH-RGD, CH-PEG, ICG, IR800-RGD were IV injected into hairless C57BL/6 mice (FIGS. 4A-4C) or nude mice (FIGS. 4D and 4E). NIR-II (FIGS. 4A, 4B, 4D, 1000 ms, 1350LP) and NIR-I imaging (FIGS. 4C, 4E, 200 ms, 814-851BP) was taken 10 min post-injection. FIGS. 4A-4C, C57BL/6 mice brain vessel images.
as §1, with “The IV injected dose was a 200 μL bolus in a 1×PBS solution at specified concentrations. The ID injected dose was a 50 μL bolus in a 1×PBS solution at specified concentrations. During the time course of imaging the mouse was kept anaesthetized by a nose cone delivering 2 l min^−1 02 gas mixed with 3% isoflurane. The sample sizes of mice were selected based on previously reported studies. Mice were randomly selected from cages for all experiments. No blinding was performed.” left out

[11] = test system: lymphatic vessels and lymph nodes; assay: Lymphatic vessel and lymph node imaging after ID injection; format: in vivo, BALB/c mice
Protocol: FIGS. 4F and 4G show cross-sectional fluorescence intensity profiles taken along red-dashed lines in (FIGS. 4D and 4E). Gaussian fits to the profiles are shown in red dashed curves. Vessel width measurements were taken from Gaussian curves. Lymphatic vessels and lymph node imaging: 3 nmol CH-RGD (FIGS. 4H-4J, 4Q, 4Y), ICG (FIGS. 4K and 4R) and IR800-RGD(s) ID into BALB/c mice (n=4 per probe). NIR-II (50 ms, 1100LP)/NIR-I (100 ms, 814-851BP) imaging was taken 1 h (FIGS. 4H-4J)/(FIG. 4K), 5 h (FIG. 4Q)/FIGS. 4R and 4S), 30 d (FIG. 4U) post ID, injection site (FIG. 4I).
IR800-RGD (3 nmol) was injected intradermally into hair-removed BALB/c mouse (n=4 per probe, male, 1 years old, weight approximately 42 g) tail base. NIR-1 imaging (100 ms, 814 approximately 851 bandpass) was taken 1 h, 3 h, 5 h post-injection. Fluorescent signal appears in mice bladder from 1 h post-injection.
as §1, with “The sample sizes of mice were selected based on previously reported studies. Mice were randomly selected from cages for all experiments. No blinding was performed.” left out

[12] = literature value; cited from earlier work

In the case of `ClC1=C(/C=C/c2cc(-c3ccccc3)[s+]c3ccccc23)CCC/C1=C\C=C1/C=C(c2ccccc2)Sc2ccccc21.[O-][Cl+3]([O-])([O-])[O-]` [IR-26], the “quantum yield of reference fluorophore” value [1] is listed as 0.05%.
In the case of CH-c(RADyk) [CH-RAD], the bone accumulation (bone; after 6 h post-injection) is reported as “no dramatic accumulation in bone”, the “final concentration in bone by fluorescent intensity, relative to CH-RGD NPs” value (bone; mouse, in vivo) is reported as “about half that of CH-RGD NPs” and the “time of maximum tumor fluorescence and TBR” value (U87MG tumor [2]) is reported as 1 days. The “mean tumor fluorescent intensity” value (U87MG tumor [3]; IV administration) was 22 k and the “ID versus IV injection comparison” value (U87MG tumor [3]; mouse, in vivo, iv) was “better TBR through ID injection”.
For `N=C(N)NCCC[C@@H]1NC(=O)[C@H](CCCCNC(=O)CCc2ccc(N(c3ccc(CCC(=O)O)cc3)c3ccc(-c4c5c(c(-c6ccc(N(c7ccc(CCC(=O)O)cc7)c7ccc(CCC(=O)O)cc7)cc6)c6nsnc46)N=S=N5)cc3)cc2)NC(=O)[C@@H](Cc2ccc(O)cc2)NC(=O)[C@H](CC(=O)O)NC(=O)CNC1=O` [CH-RGD, CH-c(RGDyk)], the photostability [4] was “remains stable”, the “time NPs stable in FBS before degrading into smaller NPs” value [5] was “up to 2 weeks” and the toxicity (NIH/3T3 cells) was “No obvious toxicity”. For the same molecule, the “time BAT could be visualized” value (bone; mouse, in vivo) was 10 days, the “time bone signal still visualized, ex-vivo imaging” value (bone; mouse, in vivo) was “up to 45 days” and the “time bone signal still visualized, in vivo imaging” value (bone; mouse, in vivo) was 3 days. The half-life [6] was ~776 min, the half-life [7] was ~7.65 days and the “time of peak fluorescence intensity, large tumor” value (U87MG tumor [8]) was 4 days. For the same molecule, the “time tumor fluorescence detectable, smaller tumor” value (U87MG tumor [8]; approximately 1 mm tumor) was 4 h, the “time tumor fluorescence detectable, larger tumor” value (U87MG tumor [8]; approximately 6 mm tumor) was “approximately 0.5 h” and the “time tumor still identifiable” value [9] was 7 days. For the same molecule, the “time tumors identified post-injection” value [10] was 1 days.
For `CC1(C)C(/C=C/C=C/C=C/C=C2\N(CCCCS(=O)(=O)O)c3ccc4ccccc4c3C2(C)C)=[N+](CCCCS(=O)(=O)[O-])c2ccc3ccccc3c21` [ICG, indocyanine green], the blood vessel detection (blood vessels) was “only the largest brain blood vessels could be detected”, the “SBR, subiliac lymph node” value ([11]; 5 h after ID injection) was “approximately 3” and the “FWHM, subiliac lymph node” value ([11]; 5 h after ID injection, Gaussian fitting) was 2.8 mm and 2.803 mm. The “width of lymphatic vessels detected” value ([11]; ID injection) was “greater than 400 μm” and the blood half-life [12] was 3 to 5 min.
